{"source": "patent US20260167740A1", "about": "“MEANS AND METHODS FOR TREATING CASTRATION-RESISTANT PROSTATE CANCER” (Merus N.V., priority 2022, published 2026)", "assay_type_in_all_cases": "in vivo, human", "key": {"[1]": {"test": "Single-agent treatment of over 100 patients with MF3958×MF3178: tolerability and immunogenicity"}, "[2]": {"tested_on": "castration-resistant prostate cancer", "test": "Phase II clinical study of zenocutuzumab with an AR axis-targeting agent in mCRPC patients: tumor response (RECIST v1.1 / PCWG3)", "excerpt": "(§1) This is a Phase II, open-label, multicenter, international study designed to evaluate the efficacy of zenocutuzumab in patients with metastatic mCRPC with evidence of disease progression in accordance with Prostate Cancer Clinical Trials Working Group 3 (PCWG3) criteria on the last line of prior hormonal therapy that included either the second-generation AR antagonist enzalutamide or the androgen synthesis inhibitor abiraterone acetate. Patients will be enrolled and will receive zenocutuzumab in combination with the AR targeting agent on which they experienced disease progression immediately before study entry. A cohort of patients with […] and tensin homolog (PTEN) wild-type status will be enrolled. A safety run-in will be performed in the first 4 to 6 patients.\n(§2) Zenocutuzumab will be administered as a 2-hour IV infusion on Day 1, then Q2W of every 28-day cycle. A flat dose of 750 mg will be administered.\n(§3) Patients will receive zenocutuzumab in combination with one of the following next generation AR signaling inhibitors that the patient was receiving immediately prior to entering the study: • Abiraterone acetate (ZYTIGA®) 1000 mg PO QD in combination with prednisone 5 mg PO twice daily (BID). • Enzalutamide (XTANDIR) 160 mg PO QD.\n(§4) Eligible patients will be enrolled and will receive sequential treatment cycles, with a treatment cycle being 4 weeks (28 days). All patients will receive zenocutuzumab with a flat dose of 750 mg IV Q2W.\nRadiological measurement of tumors to assess antitumor effect of zenocutuzumab will be performed by CT scan or MRI. Imaging will be performed according to standard local practice and data will be collected in the electronic case report form. Imaging of all patients will be assessed by the local investigator.\nWhole body bone scintigraphy will be performed every 8 weeks for the first 12 months of treatment and every 12 weeks thereafter. Tumor assessments will be completed according to PCWG3-modified RECIST criteria.\n(§5) Following the clinical trial protocol of Example 2, mCRPC patients with histologically confirmed prostate adenocarcinoma were enrolled. Patients who were progressing on either abiraterone acetate or enzalutamide were continued on their backbone AR axis-targeting agents after study enrollment and received treatment with zenocutuzumab in combination. Sites of metastatic involvement included lymph nodes, bone, and/or visceral organs. PTEN status of tumors was established in patients by IHC when sufficient biological material was available, using Roche Ventana Optiview kit DAB and SP218 PTEN antibody using Benchmark Ultra immunohistochemical automated slide stainer. The OptiView DAB IHC Detection Kit (OptiView) is an indirect, biotin-free system for detecting mouse IgG, mouse IgM and rabbit primary antibodies. The kit is intended to identify targets by IHC in sections of formalin-fixed, paraffin-embedded and frozen tissue that are stained on the VENTANA automated slide stainers and visualized by light microscopy. The clinical interpretation of any staining, or the absence of staining, is complemented by morphological studies and evaluation of proper controls."}, "[3]": {"test": "Phase II clinical study of zenocutuzumab with an AR axis-targeting agent in mCRPC patients: safety", "details": "cohort of ten mCRPC patients", "excerpt": "as §1, §2, §3, §4, §5\nAmong a cohort of ten patients treated, treatment-emergent adverse events (TEAE) related to study treatment classified as a Grade 3 TEAE or higher were not observed."}, "[4]": {"details": "Example 4: person with mCRPC, combination with enzalutamide, 6 months"}, "[5]": {"details": "Example 5: person with mCRPC, PTEN loss, combination with abiraterone acetate/prednisone, 4 months"}, "[6]": {"details": "zenocutuzumab in combination with abiraterone acetate or enzalutamide"}}, "data": [{"substance": "zenocutuzumab: Full length IgG1 bispecific antibody comprising MF3958×MF3178, targeting ERBB2 and ERBB3", "values": [{"measurement": "risk for immunogenicity", "setting": "[1]", "result": "low risk for immunogenicity"}, {"measurement": "tolerability as a single agent", "setting": "[1]", "result": "well tolerated"}, {"measurement": "radiographic progression (lymph node)", "setting": "[2]; Example 4: combination with enzalutamide, after six months of on-going treatment", "result": "no evidence of lymph node progression"}, {"measurement": "best overall response by RECIST", "setting": "[2]; [4]", "result": "stable disease"}, {"measurement": "response by bone scans by PCWG3", "setting": "[2]; [4]", "result": "no evidence of disease (NED)"}, {"measurement": "radiographic progression (lymph node or bone)", "setting": "[2]; Example 5: combination with abiraterone acetate/prednisone, after five months of on-going treatment", "result": "no evidence of lymph node or bone progression"}, {"measurement": "best overall response by RECIST", "setting": "[2]; [5]", "result": "stable disease"}, {"measurement": "response by bone scans by PCWG3", "setting": "[2]; [5]", "result": "stable disease"}, {"measurement": "best overall response by measurement of target lesions (lymph nodes) under RECIST v1.1 per investigator", "setting": "[2]; Example 6: person with mCRPC, PTEN wildtype, combination with enzalutamide", "result": "stable disease"}, {"measurement": "treatment-emergent adverse events (TEAE) related to study treatment classified as Grade 3 TEAE or higher", "setting": "[3]; zenocutuzumab 750 mg IV Q2W in combination with abiraterone acetate or enzalutamide", "result": "not observed"}, {"measurement": "infusion-related reactions (IRR) reported", "setting": "[3]; [6]", "result": "a single IRR was reported (i.e. Grade 2, related)"}, {"measurement": "safety concerns", "setting": "[3]; [6]", "result": "no safety concerns"}, {"measurement": "tolerability of the combination", "setting": "[3]; [6]", "result": "very well tolerated"}, {"measurement": "treatment discontinuation due to an adverse event", "setting": "[3]; [6]", "result": "no treatment discontinuation"}, {"measurement": "unexpected signals of toxicity", "setting": "[3]; [6]", "result": "nor were any unexpected signals of toxicity reported"}]}]}
